According to US20220010021A1 (Sanofi, published 2022):
Changes are numbered by the printed parent chain.

T1: human beta-Klotho (KLB) (human, UniProt Q86Z14 53-997)
T1 construct: also called human KLB
T1 sequence (looked up): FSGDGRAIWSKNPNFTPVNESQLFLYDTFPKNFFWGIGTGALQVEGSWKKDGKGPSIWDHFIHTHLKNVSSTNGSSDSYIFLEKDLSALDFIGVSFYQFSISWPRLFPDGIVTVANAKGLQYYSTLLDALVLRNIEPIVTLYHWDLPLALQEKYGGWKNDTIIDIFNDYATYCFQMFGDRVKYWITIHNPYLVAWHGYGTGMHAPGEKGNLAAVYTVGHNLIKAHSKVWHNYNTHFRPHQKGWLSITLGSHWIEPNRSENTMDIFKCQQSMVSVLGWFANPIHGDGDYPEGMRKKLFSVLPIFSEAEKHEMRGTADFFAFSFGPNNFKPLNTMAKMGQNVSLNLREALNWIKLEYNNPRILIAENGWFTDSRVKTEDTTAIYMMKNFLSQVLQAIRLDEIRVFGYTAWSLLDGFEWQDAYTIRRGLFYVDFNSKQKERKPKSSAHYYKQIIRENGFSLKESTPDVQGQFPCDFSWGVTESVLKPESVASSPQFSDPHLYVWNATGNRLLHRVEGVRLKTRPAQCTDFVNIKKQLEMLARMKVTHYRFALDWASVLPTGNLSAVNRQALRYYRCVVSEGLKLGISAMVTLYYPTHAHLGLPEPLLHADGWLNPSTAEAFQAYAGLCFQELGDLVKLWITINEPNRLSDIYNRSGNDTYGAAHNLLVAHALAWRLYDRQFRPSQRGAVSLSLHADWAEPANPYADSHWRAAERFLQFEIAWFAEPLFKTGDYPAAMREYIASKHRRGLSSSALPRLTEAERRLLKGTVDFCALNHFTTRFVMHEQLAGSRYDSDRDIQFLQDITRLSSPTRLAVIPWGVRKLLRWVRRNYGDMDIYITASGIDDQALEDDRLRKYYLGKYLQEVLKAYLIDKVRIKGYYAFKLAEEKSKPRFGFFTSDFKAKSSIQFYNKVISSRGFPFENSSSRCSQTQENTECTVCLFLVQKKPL

B1: 16H7 variant, light chain G24R (antibody, human IgG4 S228P, lambda, V domains shown)
VH: not shown
VL: SYVLTQPPSVSVAPGQTARITCGRNNIGSESVHWYQQKPGQAPVLVVYDDSDRPSGIPERFSGSNSGNTATLTISRVEAGDEADYYCQVWDGNSDHVVFGGGTKLTVLG
notes: IgG4 backbone
B2: 16H7 variant, light chain G24S (antibody, human IgG4 S228P, lambda, V domains shown)
VH: not shown
VL: B1 VL with R24S
notes: IgG4 backbone
B3: 16H7 variant, light chain N25E (antibody, human IgG4 S228P, lambda, V domains shown)
VH: not shown
VL: B1 VL with R24G, N25E
notes: IgG4 backbone
B4: 16H7 variant, light chain N25H (antibody, human IgG4 S228P, lambda, V domains shown)
VH: not shown
VL: B1 VL with R24G, N25H
notes: IgG4 backbone
B5: 16H7 variant, light chain N25A (antibody, human IgG4 S228P, lambda, V domains shown)
VH: not shown
VL: B1 VL with R24G, N25A
notes: IgG4 backbone
B6: 16H7 variant, light chain I27G (antibody, IgG4, V domains shown)
VH: not shown
VL: B1 VL with R24G, I27G
notes: IgG4 backbone; copies: 2 + 2
B7: 16H7 variant, light chain I27S (antibody, human IgG4 S228P, lambda, V domains shown)
VH: not shown
VL: B1 VL with R24G, I27S
notes: IgG4 backbone
B8: 16H7 variant, light chain G24W (antibody, human IgG4 S228P, lambda, V domains shown)
VH: not shown
VL: B1 VL with R24W
notes: IgG4 backbone
B9: 16H7 variant, light chain I27K (antibody, IgG4, V domains shown)
VH: not shown
VL: B1 VL with R24G, I27K
notes: IgG4 backbone; copies: 2 + 2
B10: 16H7 variant, light chain N25I (antibody, human IgG4 S228P, lambda, V domains shown)
VH: not shown
VL: B1 VL with R24G, N25I
notes: IgG4 backbone
B11: 16H7 variant, light chain I27D (antibody, human IgG4 S228P, lambda, V domains shown)
VH: not shown
VL: B1 VL with R24G, I27D
notes: IgG4 backbone
B12: 16H7 variant, light chain N25C (antibody, human IgG4 S228P, lambda, V domains shown)
VH: not shown
VL: B1 VL with R24G, N25C
notes: IgG4 backbone
B13: 16H7 variant, light chain N25G (antibody, human IgG4 S228P, lambda, V domains shown)
VH: not shown
VL: B1 VL with R24G, N25G
notes: IgG4 backbone
B14: 16H7 variant, light chain I27E (antibody, human IgG4 S228P, lambda, V domains shown)
VH: not shown
VL: B1 VL with R24G, I27E
notes: IgG4 backbone
B15: 16H7 variant, light chain G24Y (antibody, human IgG4 S228P, lambda, V domains shown)
VH: not shown
VL: B1 VL with R24Y
notes: IgG4 backbone
B16: 16H7 variant, light chain I27L (antibody, IgG4, V domains shown)
VH: not shown
VL: B1 VL with R24G, I27L
notes: IgG4 backbone; copies: 2 + 2
B17: 16H7 variant, light chain G24V (antibody, human IgG4 S228P, lambda, V domains shown)
VH: not shown
VL: B1 VL with R24V
notes: IgG4 backbone
B18: 16H7 variant, light chain G24T (antibody, human IgG4 S228P, lambda, V domains shown)
VH: not shown
VL: B1 VL with R24T
notes: IgG4 backbone

Legend:
[1] = target: human FGFR1c/KLB cell surface receptor complex on iLite FGF21 reporter cells (human, UniProt P11362 22-822; Q86Z14 1-1044); test: cell-based or functional assay; as to Mean E max (%): reference of the scale not given here
Chain of human FGFR1c/KLB cell surface receptor complex on iLite FGF21 reporter cells (P11362 22-822, chain 1 of 2): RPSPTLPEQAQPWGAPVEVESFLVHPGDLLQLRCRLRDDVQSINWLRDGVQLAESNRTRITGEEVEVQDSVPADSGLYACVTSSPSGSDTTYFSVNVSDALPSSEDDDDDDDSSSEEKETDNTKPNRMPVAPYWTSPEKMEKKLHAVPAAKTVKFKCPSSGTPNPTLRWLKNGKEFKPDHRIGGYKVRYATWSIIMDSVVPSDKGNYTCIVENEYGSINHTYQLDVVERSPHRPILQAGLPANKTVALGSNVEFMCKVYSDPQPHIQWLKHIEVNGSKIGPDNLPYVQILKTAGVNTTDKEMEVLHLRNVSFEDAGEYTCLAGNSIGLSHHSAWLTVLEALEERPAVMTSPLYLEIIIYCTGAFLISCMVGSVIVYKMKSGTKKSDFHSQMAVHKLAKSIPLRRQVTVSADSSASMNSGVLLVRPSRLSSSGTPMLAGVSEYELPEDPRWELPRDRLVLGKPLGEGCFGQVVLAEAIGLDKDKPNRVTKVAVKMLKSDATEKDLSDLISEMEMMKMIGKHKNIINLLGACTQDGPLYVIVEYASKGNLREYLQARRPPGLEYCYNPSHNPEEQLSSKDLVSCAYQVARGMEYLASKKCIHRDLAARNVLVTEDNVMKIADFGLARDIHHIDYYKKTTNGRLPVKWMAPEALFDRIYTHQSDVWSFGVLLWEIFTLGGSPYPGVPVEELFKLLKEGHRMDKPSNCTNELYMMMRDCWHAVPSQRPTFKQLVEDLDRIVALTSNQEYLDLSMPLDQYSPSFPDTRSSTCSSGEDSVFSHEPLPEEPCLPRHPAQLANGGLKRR
Chain of human FGFR1c/KLB cell surface receptor complex on iLite FGF21 reporter cells (Q86Z14 whole entry, chain 2 of 2): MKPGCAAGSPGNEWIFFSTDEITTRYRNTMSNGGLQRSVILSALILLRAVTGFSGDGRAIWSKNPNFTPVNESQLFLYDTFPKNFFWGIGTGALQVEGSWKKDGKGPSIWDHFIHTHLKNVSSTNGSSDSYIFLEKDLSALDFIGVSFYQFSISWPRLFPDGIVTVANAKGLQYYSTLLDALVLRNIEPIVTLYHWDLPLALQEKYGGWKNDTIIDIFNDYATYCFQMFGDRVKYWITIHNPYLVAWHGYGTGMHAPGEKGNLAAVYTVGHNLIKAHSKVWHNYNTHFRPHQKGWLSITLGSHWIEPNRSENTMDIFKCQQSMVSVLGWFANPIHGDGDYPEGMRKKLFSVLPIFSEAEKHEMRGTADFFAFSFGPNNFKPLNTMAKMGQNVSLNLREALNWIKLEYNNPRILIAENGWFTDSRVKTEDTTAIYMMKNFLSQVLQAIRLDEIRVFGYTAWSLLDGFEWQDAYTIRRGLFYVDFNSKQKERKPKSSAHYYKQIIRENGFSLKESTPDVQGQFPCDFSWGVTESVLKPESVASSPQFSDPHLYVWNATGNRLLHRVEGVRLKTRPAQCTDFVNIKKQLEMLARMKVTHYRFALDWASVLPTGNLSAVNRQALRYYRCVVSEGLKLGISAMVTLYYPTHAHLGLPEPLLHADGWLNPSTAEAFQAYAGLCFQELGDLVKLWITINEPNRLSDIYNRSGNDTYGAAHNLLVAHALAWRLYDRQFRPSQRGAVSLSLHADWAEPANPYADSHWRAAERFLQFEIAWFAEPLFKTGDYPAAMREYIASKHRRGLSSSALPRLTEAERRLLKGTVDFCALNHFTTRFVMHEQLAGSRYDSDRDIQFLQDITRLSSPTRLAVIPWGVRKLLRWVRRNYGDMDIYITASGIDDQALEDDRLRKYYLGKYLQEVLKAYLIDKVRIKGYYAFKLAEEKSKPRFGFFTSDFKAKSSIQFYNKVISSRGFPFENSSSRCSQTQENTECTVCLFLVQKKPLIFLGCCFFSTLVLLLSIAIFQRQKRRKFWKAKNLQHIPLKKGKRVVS

human beta-Klotho (KLB) = target: T1, human beta-Klotho (KLB); test: BLI off-rate screen (Octet), Ab captured via Fc;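 also: antibody supernatants applied at 25 µg/mL, dissociation monitored over 1800 s in D-PBS with 0.1% BSA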

Binder	Mean E max (%) [1] [%]	Mean EC50 [1] [pM]	koff (human beta-Klotho (KLB)) [s⁻¹]
B1	98	106	1.5e-06
B2	121	135	8.3e-06
B3	106	107	3e-05
B4	106	137	3e-05
B5	96	81	1.6e-05
B6	111	123	3e-05
B7	106	141	4.9e-05
B8	110	145	3.7e-05
B9	99	127	5.3e-05
B10	104	122	2.2e-05
B11	107	107	4.6e-05
B12	110	133	3.6e-06
B13	100	118	3.2e-05
B14	98	121	4.6e-05
B15	107	137	4.1e-05
B16	110	124	6.2e-05
B17	102	125	8.5e-05
B18	106	139	6.9e-05
